Each block holds one binder with its values, some of them ahead of it. Where no end group is shown, it is not given here.
Experiments:
[1] = target: T1, Aurora A kinase domain (residues 126-390) with hexa-His tag (human, UniProt O14965 126-390); assay: ligand-based NMR competition; ligand-based NMR of fragment hits with Aurora A; displacement of the fragments by the TPX2 peptide fragment 7-22; conditions: both partners purified
T1 construct: Aurora A, human, kinase domain only, residues 126-390, Uniprot O14965; construct for biophysical assays; No removal of the His tag is described; The crystallography constructs differ (Thr287Ala or Cys290Ala; or residues 126-391 without His tag); also called Aurora A protein; pBAT4-AurAS.003 construct; source: E. coli BL21(DE3) with pUBS520, co-expressed with lambda phosphatase, purified (HisTrap, …)
T1 sequence (looked up): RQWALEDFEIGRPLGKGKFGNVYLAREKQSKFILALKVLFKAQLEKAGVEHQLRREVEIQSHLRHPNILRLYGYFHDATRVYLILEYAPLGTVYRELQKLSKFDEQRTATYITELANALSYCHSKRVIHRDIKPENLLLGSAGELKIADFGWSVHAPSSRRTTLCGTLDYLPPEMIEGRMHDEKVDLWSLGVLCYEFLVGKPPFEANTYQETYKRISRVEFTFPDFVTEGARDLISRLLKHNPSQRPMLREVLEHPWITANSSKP

[2] = target: T1, Aurora A kinase domain (residues …); assay: fluorescence polarisation; direct titration of up to 200 nM Aurora A to 11 nM labelled TPX2 peptide; 100 mM HEPES pH 7.4, 100 mM magnesium acetate, 50 mM NaCl, 0.02% P20, 1 mM DTT, 1 mM ATP, 10% (v/v) DMSO; conditions: both partners purified

binding result [1]: binds
B1: TPX2 peptide fragment (amino acids 7-22) (peptide, UniProt Q9ULW0 7-22, looked up)
peptide: SYSYDAPSDFINFSSL
notes: TPX2, amino acids 7-22; Uniprot Q9ULW0 is printed for the longer TPX2 peptide of the methods

Kd [2]: 1.2 nM
B2: TPX2 peptide (residues 7-43) with C-terminal GGGCSS tail, labelled with Alexa Fluor 488 (peptide)
peptide: SYSYDAPSDFINFSSLDDEGDTQNIDSWFEEKANLENGGGC(Alexa Fluor 488 C5 maleimide)SS
notes: TPX2 (Targeting protein for Xenopus kinesin-like protein 2), residues 7-43, Uniprot Q9ULW0; C-terminal tail that carries the cysteine for labelling; also called labelled TPX2 peptide; labelled TPX2; source: E. coli, purified (Ni Sepharose, labelled, cleaved with HRV 3C protease, second Ni Sepharose, reversed phase C18); not shown: His-tag, N-terminal, cleaved; GB1, N-terminal, cleaved

From publication doi:10.1101/2023.03.22.533679, “Selective inhibitors of the Aurora A-TPX2 protein-protein interaction exhibit in vivo efficacy as targeted anti-mitotic agents” (bioRxiv, 2023)
